The results in this text go back to US20240100134.

Data set [1] relates to recombinant plasminogen-linker-Fc fusion (human plasminogen, QA linker GQAGQAS, Fc).
Data set [2] concerns recombinant human plasminogen (not fused to Fc, wild-type).
recombinant human plasminogen (not fused to Fc, wild-type), sequence (chain, as listed by the source): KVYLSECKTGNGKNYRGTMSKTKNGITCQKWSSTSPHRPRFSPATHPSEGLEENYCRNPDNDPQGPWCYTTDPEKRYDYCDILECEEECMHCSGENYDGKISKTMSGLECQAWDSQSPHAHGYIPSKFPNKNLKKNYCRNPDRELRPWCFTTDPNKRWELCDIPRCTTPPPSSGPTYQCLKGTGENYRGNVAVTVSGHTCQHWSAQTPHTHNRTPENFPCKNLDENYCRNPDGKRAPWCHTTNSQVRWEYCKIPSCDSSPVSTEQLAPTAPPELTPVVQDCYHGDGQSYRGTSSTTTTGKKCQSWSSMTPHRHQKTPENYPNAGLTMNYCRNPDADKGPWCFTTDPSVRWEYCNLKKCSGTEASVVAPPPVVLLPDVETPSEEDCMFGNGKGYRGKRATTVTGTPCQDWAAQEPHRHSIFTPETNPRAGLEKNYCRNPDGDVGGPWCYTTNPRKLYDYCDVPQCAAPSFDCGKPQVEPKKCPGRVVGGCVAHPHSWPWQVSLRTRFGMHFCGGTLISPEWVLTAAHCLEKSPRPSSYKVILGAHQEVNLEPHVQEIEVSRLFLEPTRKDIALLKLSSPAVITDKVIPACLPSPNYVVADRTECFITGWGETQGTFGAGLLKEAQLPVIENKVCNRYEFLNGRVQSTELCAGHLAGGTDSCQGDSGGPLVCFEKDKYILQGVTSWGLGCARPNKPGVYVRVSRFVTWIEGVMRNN

recombinant plasminogen-linker-Fc fusion (human plasminogen, QA linker GQAGQAS, Fc), sequence (chain, as listed by the source): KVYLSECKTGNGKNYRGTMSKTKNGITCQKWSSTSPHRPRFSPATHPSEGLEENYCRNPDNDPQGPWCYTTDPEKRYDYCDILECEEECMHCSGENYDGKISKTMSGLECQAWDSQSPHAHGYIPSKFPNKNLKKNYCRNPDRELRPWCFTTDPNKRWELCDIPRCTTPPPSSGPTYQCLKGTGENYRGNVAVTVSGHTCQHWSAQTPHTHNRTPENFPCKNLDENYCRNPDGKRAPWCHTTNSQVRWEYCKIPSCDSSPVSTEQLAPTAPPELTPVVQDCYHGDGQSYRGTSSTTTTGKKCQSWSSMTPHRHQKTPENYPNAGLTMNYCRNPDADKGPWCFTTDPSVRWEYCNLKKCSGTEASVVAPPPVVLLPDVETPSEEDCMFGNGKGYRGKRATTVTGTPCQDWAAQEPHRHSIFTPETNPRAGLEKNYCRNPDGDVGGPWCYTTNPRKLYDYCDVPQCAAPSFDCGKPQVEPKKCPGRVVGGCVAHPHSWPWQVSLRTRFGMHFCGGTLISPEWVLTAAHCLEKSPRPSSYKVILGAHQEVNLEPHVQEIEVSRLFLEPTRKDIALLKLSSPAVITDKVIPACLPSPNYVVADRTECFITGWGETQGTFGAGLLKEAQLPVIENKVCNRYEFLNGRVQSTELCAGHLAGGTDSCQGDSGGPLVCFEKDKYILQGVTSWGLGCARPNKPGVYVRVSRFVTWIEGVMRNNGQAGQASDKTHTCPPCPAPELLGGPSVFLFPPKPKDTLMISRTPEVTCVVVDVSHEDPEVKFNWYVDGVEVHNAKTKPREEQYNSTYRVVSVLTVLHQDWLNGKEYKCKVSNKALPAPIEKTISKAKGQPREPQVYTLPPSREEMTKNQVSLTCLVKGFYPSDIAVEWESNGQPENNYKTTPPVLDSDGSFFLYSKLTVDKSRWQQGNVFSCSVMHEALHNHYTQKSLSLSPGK

Regarding urokinase-type plasminogen activator, the “Michelis-Menten analysis of activation (KM and Vmax), 10 mM EACA” value in data set [1] is “the kinetics of rPlg and rPlg-Fc activation are similar (as indicated by the KM and Vmax)”; in data set [2] it was “the kinetics of rPlg and rPlg-Fc activation are similar (as indicated by the KM and Vmax)”. Further, the “activation measured by the hydrolysis of plasmin fluorogenic substrate H-Ala-Phe-Lys-AMC” value is “In the presence of tPA or uPA, comparable hydrolytic activity for rPlg and rPlg-Fc is observed” in data set [1]; “In the presence of tPA or uPA, comparable hydrolytic activity for rPlg and rPlg-Fc is observed” in data set [2].
